# From patent EP4810058A1 (Shanghai Henlius Biotech, Inc., dated 2026)
# B1: Second anti-HER2 antibody (antibody, human IgG1, kappa, V domains shown)
# VH: EVQLVESGGGLVQPGGSLRLSCAASGFTFSSYTMSWVRQAPGKGLEWVAYISAGGGSTYYPDTVKGRFTISRDNAKNSLYLQMNSLRAEDTAVYYCARHLGGTASFDYWGQGTLVTVSS
# VL: DIQMTQSPSSLSASVGDRVTITCLASQTIGTWLAWYQQKPGKAPKLLIYVATSLADGVPSRFSGSGSGTDFTLTISSLQPEDFATYYCQQNAYAPWTFGQGTKVEIKR
# notes: also called second antibody; hz1E11-133
# Columns and labels:
# [1] = biological target: T1, HER2 on gastric cancer cells NCI-N87 and SNU216 (human, UniProt P04626 23-1255); assay: HER2 internalization assay on NCI-N87 and SNU216 cells, pHrodo dye, flow cytometry
# T1 construct: whole, on cells; also called CD340; erbB2
# HER2-Fc protein = biological target: T2, HER2-Fc protein (human, UniProt P04626 23-652); assay: SPR (Biacore CM5), antibody immobilized by amine coupling, HER2-Fc injected
# T2 construct: Bought reagent (Sino Biological, PA, USA, Cat. No. 10004-H02H, LC10JA1203); not shown: Fc part of the bought fusion
binder,measurement,setting,value
B1,binding result,[1],binds
same,binding result,HER2-Fc protein,binds
